In paper PMC13570301 (2026) one finds Kd data, which are given here for three molecules.

Residue numbers refer to the chain shown, from its start. Numbers in names are those of the source.

In the experiment the target is UBE2D2 (1–147), from the plasmid pHis//2 Hs UBE2D2 (1–147) (human, UniProt P62837 1-147). Briefly: BLI. For orientation: Biolayer interferometry detects binding as a change in optical thickness at a sensor tip.
Chain of UBE2D2 (1–147), from the plasmid pHis//2 Hs UBE2D2 (1–147) (P62837 whole entry): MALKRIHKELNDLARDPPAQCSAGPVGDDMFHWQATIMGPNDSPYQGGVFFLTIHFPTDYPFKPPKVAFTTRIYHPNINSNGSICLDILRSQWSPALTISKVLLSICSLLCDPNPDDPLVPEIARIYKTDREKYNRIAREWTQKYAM

B1: CHIP wild type, recombinant, C-terminal His tag (pET30-CHIP-His) (enzyme)
chain: MKGKEEKEGGARLGAGGGSPEKSPSAQELKEQGNRLFVGRKYPEAAACYGRAITRNPLVAVYYTNRALCYLKMQQHEQALADCRRALELDGQSVKAHFFLGQCQLEMESYDEAIANLQRAYSLAKEQRLNFGDDIPSALRIAKKKRWNSIEERRIHQESELHSYLSRLIAAERERELEECQRNHEGDEDDSHVRAQQACIEAKHDKYMADMDELFSQVDEKRKKRDIPDYLCGKISFELMREPCITPSGITYDRKDIEEHLQRVGHFDPVTRSPLTQEQLIPNLAMKEVIDAFISENGWVEDY
B1: binding was characterised by a dissociation constant (Kd) of 14.3 µM.

B2: CHIP P228S, recombinant, C-terminal His tag (enzyme)
chain: B1 chain with P228S
B2: the affinity, expressed as Kd, was 44.9 µM.

B3: CHIP G33S, recombinant, C-terminal His tag (enzyme)
chain: B1 chain with G33S
Regarding B3, the affinity, expressed as Kd, was 24.2 µM.
